From article PMC6386705

What was measured:
[1] = biological target: HuR RRM3 (residues 241 to 326) (human), Q15717; assay: NMR 15N relaxation; settings: remark: other sources report otherwise
[2] = biological target: HuR RRM3 (residues 241 to 326) (human), Q15717; assay: ITC; settings: remark: other sources report otherwise

stoichiometry N [1]: 2 | Kd [2]: 31.7 µM
B1: HuR RRM3 (residues 241 to 326), Q15717 241-326 (domain or fragment)
chain: SSGWCIFIYNLGQDADEGILWQMFGPFGAVTNVKVIRDFNTNKCKGFGFVTMTNYEEAAMAIASLNGYRLGDKILQVSFKTNKSHK
